{"source": "patent US10526416B2", "about": "“Anti-HER3 antibodies and uses of same” (Yeda Research and Development Co. Ltd., priority 2014, dated 2020)", "molecules": {"B1": {"name": "XC252: anti-HER3 mAb generated as described in Chen X, et al. (1996); heavy and light chain SEQ ID NOs: 49 and 53 (antibody, V domains shown)", "VH": "EVQLQQSGAELVRPGVSVKISCKGSGYTFTDYAMHWVKQSHAKSLEWIGVISTYYGDPRDNQKFKGKATMTVDKSSSTAYMELARLTSEDSAIYYCARGDYDWYAIDYWGQGTSVTVSS", "VL": "DVVMTQTPLSLPVSLGDQASISCRSSQSIVHSDGNTYLEWYLQKPGQSPKLLIYKVSNRFSGVPDRFSGSGSGTDFTLKISRVEAEDLGVYYCFQGSHVPPTFGGGTKLEIK", "modifications": "VH chain of XC252 polypeptide; VL chain of XC252 polypeptide"}}, "key": {"[1]": {"biological_target": "HER3 (Homo sapiens, UniProt P21860)", "sequence (P21860 20-1342)": "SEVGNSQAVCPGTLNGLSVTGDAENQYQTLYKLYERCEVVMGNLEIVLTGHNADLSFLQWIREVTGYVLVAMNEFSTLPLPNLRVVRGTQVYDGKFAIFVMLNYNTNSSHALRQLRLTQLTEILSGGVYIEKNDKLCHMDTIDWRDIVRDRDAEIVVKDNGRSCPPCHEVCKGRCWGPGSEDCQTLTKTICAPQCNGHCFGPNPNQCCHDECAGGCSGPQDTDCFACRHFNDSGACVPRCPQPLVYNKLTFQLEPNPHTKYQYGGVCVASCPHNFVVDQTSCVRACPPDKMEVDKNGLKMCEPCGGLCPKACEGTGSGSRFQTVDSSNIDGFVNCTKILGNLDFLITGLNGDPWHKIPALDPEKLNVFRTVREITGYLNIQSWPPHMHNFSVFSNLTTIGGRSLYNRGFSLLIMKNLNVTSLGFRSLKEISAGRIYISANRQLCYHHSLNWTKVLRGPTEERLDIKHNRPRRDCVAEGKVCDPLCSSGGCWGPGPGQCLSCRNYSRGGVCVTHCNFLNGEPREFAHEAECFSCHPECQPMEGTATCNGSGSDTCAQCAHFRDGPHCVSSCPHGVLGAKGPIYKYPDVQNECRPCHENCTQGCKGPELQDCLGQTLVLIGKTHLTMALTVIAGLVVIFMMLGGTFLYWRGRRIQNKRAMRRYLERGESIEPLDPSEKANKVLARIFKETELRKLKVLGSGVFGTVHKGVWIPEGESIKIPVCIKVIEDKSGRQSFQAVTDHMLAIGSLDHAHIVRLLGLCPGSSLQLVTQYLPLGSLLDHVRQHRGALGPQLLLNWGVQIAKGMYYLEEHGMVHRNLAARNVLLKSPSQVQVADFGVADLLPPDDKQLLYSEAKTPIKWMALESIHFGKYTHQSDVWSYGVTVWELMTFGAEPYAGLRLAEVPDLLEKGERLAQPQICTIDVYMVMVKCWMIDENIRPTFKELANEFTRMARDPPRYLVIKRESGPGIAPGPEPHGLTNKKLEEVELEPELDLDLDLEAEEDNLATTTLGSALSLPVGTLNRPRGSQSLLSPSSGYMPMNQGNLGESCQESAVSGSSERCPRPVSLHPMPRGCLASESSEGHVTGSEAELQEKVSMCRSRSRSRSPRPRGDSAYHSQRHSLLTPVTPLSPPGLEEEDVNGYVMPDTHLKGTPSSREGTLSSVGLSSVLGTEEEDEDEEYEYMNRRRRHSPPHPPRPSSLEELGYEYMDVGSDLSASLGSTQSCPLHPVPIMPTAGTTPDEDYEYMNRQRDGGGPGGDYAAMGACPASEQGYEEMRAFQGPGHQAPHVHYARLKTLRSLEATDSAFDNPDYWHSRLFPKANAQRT", "experiment": "HER3 degradation in N87 cells (immunoblotting)", "format": "cell-based", "conditions": "3 h, 10 μg/ml mAb", "experimental": "(FIGS. 5A and 5B) The mAb ability to degrade HER3 after cell treatment was determined as follows. N87 cells were treated for 3 h at 37° C. with 10 μg/ml mAb. After cell lysis and protein extraction, the samples were subjected to immunoblotting with the indicated Ab. (FIG. 5C) The experiment shown in FIG. 5A was performed on 6 other cancer cell lines. (FIG. 5D) The mAb capacity to induce ADCC is reported. BXPC3-luc cells were incubated with the indicated mAbs and secondarily with human PBMC cells for 24 h. Cell killing was detected by measuring the luminescence after final addition of luciferine. *** […], ANOVA and post hoc tests.\nNG33 and NRG abilities to degrade HER3 after cell treatment were determined as follows. […]\n(§1) FIGS. 12A-D show a combination of two mAbs directed to two different epitopes of HER3. […] After ah incubation, the plate was washed 4 times with KREBS buffer, and the fluorescence intensity at 610 nm was measured using a fluorescence microplate reader. […] (FIG. 12D) The combination's capacity to modulate NRG-induced phosphorylation of HER3, AKT and ERK was evaluated using N87 cells. […] The cells were then lysed, and equal quantities of lysate protein were electrophoresed before immunoblotting, as indicated. […]\nThe capacity of the mAbs to decrease abundance of HER3 was determined using western blotting. […]"}, "[2]": {"test_system": "phosphorylation of HER3, AKT and ERK", "experiment": "NRG-induced phosphorylation of HER3, AKT and ERK in N87 cells (immunoblotting)", "format": "cell-based, human", "conditions": "mAb 10 μg/ml 20 min, then NRG 20 ng/ml", "experimental": "(FIG. 9A) The indicated mAbs were checked for their capacity to compete with fluorescent dye labeled NRG. […] After washes, the labeled-NRG was added and incubated for 30 min at 4° C. Fluorescence intensity at 670 nm was determined following 3 final washes. (FIG. 9B) The ability of the mAbs to avoid NRG-induced phosphorylation of HER3, AKT and ERK, was studied with N87 cells. After 20 min treatment with the indicated mAbs (10 μg/ml) at 37° C., NRG (20 ng/ml) was added to the cells for 10 min. The cells were then lysed, and equal quantities of protein lysates were run on 9% bisacrylamide gel before immunoblotting with the indicated primary antibodies. (FIG. 9C) The capacity of mAb NG33 to avoid NRG-induced migration was checked with OVCAR-5 cells and the quantification reported in a histogram. […] Signals of triplicates were quantified. **** […] (ANOVA and post hoc tests).\nas §1"}}}
{"molecule": "B1", "values": [{"measurement": "HER3 degradation", "setting": "[1]", "value": "caused HER3 degradation, but their impact was weaker"}, {"measurement": "effect on NRG-induced HER3 phosphorylation and AKT and ERK activation", "setting": "[2]", "value": "partly decrease the phosphorylation level of HER3"}]}
